Target: GFP-tagged SARS-CoV N protein, full length (SARS-CoV, UniProt P59595 1-422)
Assay: co-immunoprecipitation on Flag-tagged MASP-2 region beads, anti-GFP immunoblot

Sequence of GFP-tagged SARS-CoV N protein, full length (P59595 whole entry): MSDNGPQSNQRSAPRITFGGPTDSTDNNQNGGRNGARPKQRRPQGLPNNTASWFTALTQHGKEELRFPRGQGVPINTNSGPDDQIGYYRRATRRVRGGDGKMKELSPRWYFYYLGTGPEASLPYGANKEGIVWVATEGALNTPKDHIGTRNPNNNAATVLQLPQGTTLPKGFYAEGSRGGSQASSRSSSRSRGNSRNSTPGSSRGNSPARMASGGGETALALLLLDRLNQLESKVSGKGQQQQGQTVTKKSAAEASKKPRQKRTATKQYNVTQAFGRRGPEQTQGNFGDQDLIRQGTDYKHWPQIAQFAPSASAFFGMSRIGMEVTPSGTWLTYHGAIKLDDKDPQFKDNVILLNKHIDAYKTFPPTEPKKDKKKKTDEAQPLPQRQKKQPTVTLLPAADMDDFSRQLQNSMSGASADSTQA

B1: Flag-tagged MASP-2 N-terminal CUB1-EGF-CUB2 region (other, UniProt O00187 16-296, looked up, not shown: small tags and cut ends)
chain: TPLGPKWPEPVFGRLASPGFPGEYANDQERRWTLTAPPGYRLRLYFTHFDLELSHLCEYDFVKLSSGAKVLATLCGQESTDTERAPGKDTFYSLGSSLDITFRSDYSNEKPFTGFEAFYAAEDIDECQVAPGEAPTCDHHCHNHLGGFYCSCRAGYVLHRNKRTCSALCSGQVFTQRSGELSSPEYPRPYPKLSSCTYSISLEEGFSVILDFVESFDVETHPETLCPYDFLKIQTDREEHGPFCGKTLPHRIETKSNTVTITFVTDESGDHTGWKIHYTST
notes: domain: CUB1-EGF-CUB2
  binding result: no binding
